B1: STAT2 N domain (aminoterminal domain), recombinant, mEGFP-tagged (domain or fragment)
chain: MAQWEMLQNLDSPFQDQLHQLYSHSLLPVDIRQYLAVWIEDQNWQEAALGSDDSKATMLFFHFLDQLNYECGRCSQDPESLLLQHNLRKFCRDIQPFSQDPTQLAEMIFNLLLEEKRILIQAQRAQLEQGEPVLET
modifications: limits not given; N domain taken up to the start of the core region (P52630 region from 138), homologous to STAT1 1-131; mEGFP and Strep-tag omitted limits not given; N domain taken up to the start of the core region (P52630 region from 138), homologous to STAT1 1-131; mEGFP and Strep-tag omitted
B2: STAT1 N domain (aminoterminal domain), recombinant (domain or fragment)
chain: MSQWYELQQLDSKFLEQVHQLYDDSFPMEIRQYLAQWLEKQDWEHAANDVSFATIRFHDLLSQLDDQYSRFSLENNFLLQHNIRKSKRNLQDNFQEDPIQMSMIIYSCLKEERKILENAQRFNQAQSGNIQ
modifications: limits not printed (S1 Text/ref. 22); N domain taken up to the start of the conventional STAT1 core fragment (132-713); Strep-tag omitted limits not given; N domain taken up to the start of the core region (P52630 region from 138), homologous to STAT1 1-131; mEGFP and Strep-tag omitted
B3: STAT1 N domain (aminoterminal domain), recombinant (domain or fragment)
chain: B2 chain
modifications: limits not printed (S1 Text/ref. 22); N domain taken up to the start of the conventional STAT1 core fragment (132-713); Strep-tag omitted limits not given; same convention as m2; tags omitted
B4: STAT1 N domain (aminoterminal domain), recombinant (domain or fragment)
chain: B2 chain
modifications: limits not printed (S1 Text/ref. 22); N domain taken up to the start of the conventional STAT1 core fragment (132-713); Strep-tag omitted limits not printed (S1 Text/ref. 22); N domain taken up to the start of the conventional STAT1 core fragment (132-713); Strep-tag omitted

Experiments:
Experiment in all cases: AUC
[1] = biological target: STAT2 N domain (aminoterminal domain), recombinant, mEGFP-tagged (human)
[2] = biological target: STAT2 N domain LL81,82AA, recombinant (human)
[3] = biological target: T1, STAT1 N domain (aminoterminal domain), recombinant
T1 chain: B2 chain

STAT2 N domain (aminoterminal domain), recombinant, mEGFP-tagged (human), sequence (chain, as listed by the source): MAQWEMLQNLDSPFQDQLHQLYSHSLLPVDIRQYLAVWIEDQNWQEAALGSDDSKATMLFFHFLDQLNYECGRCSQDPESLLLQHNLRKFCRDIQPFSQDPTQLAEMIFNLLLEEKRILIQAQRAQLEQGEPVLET
STAT2 N domain LL81,82AA, recombinant (human), sequence (chain, as listed by the source): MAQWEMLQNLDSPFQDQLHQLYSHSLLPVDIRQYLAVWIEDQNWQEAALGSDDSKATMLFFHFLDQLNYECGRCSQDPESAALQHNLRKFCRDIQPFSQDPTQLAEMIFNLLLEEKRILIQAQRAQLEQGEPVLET

Kd [1] [µM] | also measured | Binder
705 | – | B1
< 0.01 | – | B2
– | Kd [2]: 5500 µM | B3
– | Kd [3]: 16.6 µM | B4
